Drawing on patent publication US20230374088A1, this text covers amount of Gli2 in the nucleus as a percentage of total Gli expression (mNeonGreen intensity), HeLa cells for 1 substance.

Bounds are passed on as bounds.

The target of the assay is mNeonGreen-tagged full length Gli2 (human) (UniProt P10070). Kind of assay: cell-based or functional assay.

For “mRuby-tagged Kif7-CC (460-600aa) with ER localization signal (from UniProt Q2M1P5 460-600)”, the amount of Gli2 in the nucleus as a percentage of total Gli expression (mNeonGreen intensity), HeLa cells is less than 25%.
